Experimental data taken from US6544504B1, “Combined use of interleukin 10 and methotrexate for immuno-modulatory therapy” (Schering Corporation, priority 1999, dated 2003).
Entries after “also recorded” stand apart in the source; their conditions may differ.

What was measured:
Assay type in all cases: in vivo, human
[1] = system: patients with active rheumatoid arthritis; assay: Safety and tolerance study of IL-10 plus stable MTX in active rheumatoid arthritis
Description: (§1) A multinational, multicenter, sequentially randomized, double-blind, placebo-controlled, rising multiple-dose study of IL-10 plus methotrexate (MTX) treatment was completed in patients with active rheumatoid arthritis.
(§2) Fifty patients were to receive one of five dosing regimens of IL-10 (SC) (1 μg/kg daily, 4 μg/kg daily, 8 μg/kg three times a week [TIW], 8 μg/kg daily and 20 μg/kg TIW) or placebo for 28 days, in addition to stable dosing with MTX (Treatment Phase). The patients were followed for 8 weeks after the end of IL-10 dosing (Follow-up Phase). Patients received MTX at therapeutic doses for at least 4 months prior to study entry. The dose of MTX was 12.5-25 mg/week (oral, subcutaneous or intramuscular) and remained constant throughout the study (Screening, Treatment and Follow-up Phases).
(§3) Patients were sequentially enrolled into the study in dose cohorts starting with the lowest dose of IL-10. Safety was assessed for each dose level prior to progressing to the next higher dose. Ten patients were assessed at each of the IL-10 dose cohorts: 8 received IL-10 and 2 received placebo (4:1). There was no replacement of patients.
The primary objective was to evaluate, in a dose-escalating manner, the safety and tolerance of IL-10 (SC) therapy given daily or TIW plus MTX (oral/intramuscular/SC) over a 28 day period to patients with active rheumatoid arthritis. The secondary objectives were to evaluate the effect of IL-10 on measures of rheumatoid arthritis Disease Activity, and to determine changes in the circulating levels of soluble p55 and p75 TNF receptors and IL-1 receptor antagonist. Protocol-defined responders were defined as those patients with at least 20% ACR criteria, i.e. at least 20% improvement in number of tender joints, number of swollen joints and in at least 3 of 5 RA Disease Activity measures (i.e. subject's assessment of pain, disease activity or physical function and physician's global assessment of disease activity. […]

[2] = system: patients with active rheumatoid arthritis; assay: Rheumatoid arthritis Disease Activity / ACR response in the IL-10 plus MTX study
Description: as §1, §2, §3
The primary objective was to evaluate, in a dose-escalating manner, the safety and tolerance of IL-10 (SC) therapy given daily or TIW plus MTX (oral/intramuscular/SC) over a 28 day period to patients with active rheumatoid arthritis. The secondary objectives were to evaluate the effect of IL-10 on measures of rheumatoid arthritis Disease Activity, and to determine changes in the circulating levels of soluble p55 and p75 TNF receptors and IL-1 receptor antagonist. Protocol-defined responders were defined as those patients with at least 20% ACR criteria, i.e. at least 20% improvement in number of tender joints, number of swollen joints and in at least 3 of 5 RA Disease Activity measures (i.e. subject's assessment of pain, disease activity or physical function and physician's global assessment of disease activity.
Fifty patients were enrolled and sequentially randomized to receive one of the five dosing regimens of IL-10 (SC) (1 μg/kg daily, 4 μg/kg daily, 8 μg/kg TIW, 8 μg/kg daily and 20 μg/kg TIW) or placebo which formed the intent-to-treat population (ITT). Mean duration of treatment was at least 26 days for each of the treatment groups. The treatment groups were similar in demographic characteristics except for slight differences in age. Baseline characteristics of RA Disease Activity were similar for treatment groups.

[3] = system: TNFα, IL-1β, soluble TNF p55 and p75 receptors, IL-1 receptor antagonist; assay: Ex-vivo induced proinflammatory cytokines and circulating soluble TNF receptors / IL-1 receptor antagonist; conditions: nearly all IL-10 treatment groups compared with placebo, plus MTX
Description: as §2
The primary objective was to evaluate, in a dose-escalating manner, the safety and tolerance of IL-10 (SC) therapy given daily or TIW plus MTX (oral/intramuscular/SC) over a 28 day period to patients with active rheumatoid arthritis. The secondary objectives were to evaluate the effect of IL-10 on measures of rheumatoid arthritis Disease Activity, and to determine changes in the circulating levels of soluble p55 and p75 TNF receptors and IL-1 receptor antagonist. […]

[4] = each IL-10 dose group plus MTX versus placebo plus MTX

IL-10: a cytokine produced by T lymphocytes; protein with sequence substantially identical to mature IL-10; most preferably recombinant human IL-10
safety and tolerance ([1]; IL-10 SC 1-20 μg/kg daily or TIW for 28 days plus stable MTX 12.5-25 mg/week): generally well tolerated; also recorded: safe and well tolerated | most frequently reported adverse events ([1]; IL-10 SC for 28 days plus stable MTX): headache, injection site reaction, nausea, musculoskeletal pain, with no dose-response relationship seen | anti-dsDNA or anti IL-10 antibodies ([1]; IL-10 SC for 28 days plus stable MTX, any time during the study): No anti-dsDNA or anti IL-10 antibodies were present | effects on rheumatoid arthritis Disease Activity (conclusion) ([2]; IL-10 in combination with MTX, greatest for 8 μg/kg TIW, 8 μg/kg daily and 20 μg/kg TIW): may have beneficial effects | protocol-defined response (percentage of responders) ([2]; after 28 days of dosing versus baseline, ITT population, compared with placebo plus MTX): trend toward a greater percentage of responders | mean change from baseline for individual clinical measures of rheumatoid arthritis disease activity ([2]; after 28 days, compared with placebo plus MTX): generally showing a greater percentage of responders than in placebo group | percent of patients having a 20% improvement in disease activity (ACR 20) [2, 4]: higher for each of the IL-10 treatment groups than for the placebo group | percent of patients having a 50% improvement in disease activity (ACR 50) [2, 4]: higher for each of the IL-10 treatment groups than for the placebo group | circulating serum levels of soluble TNF p55 and TNF p75 receptors and IL-1 receptor antagonists [3]: trend towards increased circulating serum levels | production of ex-vivo induced proinflammatory cytokines (TNFα and IL-1β) [3]: trend towards decreased production
